T1: Fc gamma receptor RIIB/C on CHO-K1SV cells (human, UniProt P31994 43-310)
T1 construct: whole, on cells
T1 sequence (looked up): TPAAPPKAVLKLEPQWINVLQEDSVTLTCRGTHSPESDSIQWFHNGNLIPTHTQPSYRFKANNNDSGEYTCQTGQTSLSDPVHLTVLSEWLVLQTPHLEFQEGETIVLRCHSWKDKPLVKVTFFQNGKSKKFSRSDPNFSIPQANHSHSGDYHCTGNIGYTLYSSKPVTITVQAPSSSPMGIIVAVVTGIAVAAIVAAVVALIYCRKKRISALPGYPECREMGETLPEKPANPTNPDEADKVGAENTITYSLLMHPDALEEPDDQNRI

T2: Fc gamma receptor RIIA H131 on CHO-K1SV cells (human, UniProt P12318 34-317)
T2 construct: whole, on cells
T2 sequence (looked up): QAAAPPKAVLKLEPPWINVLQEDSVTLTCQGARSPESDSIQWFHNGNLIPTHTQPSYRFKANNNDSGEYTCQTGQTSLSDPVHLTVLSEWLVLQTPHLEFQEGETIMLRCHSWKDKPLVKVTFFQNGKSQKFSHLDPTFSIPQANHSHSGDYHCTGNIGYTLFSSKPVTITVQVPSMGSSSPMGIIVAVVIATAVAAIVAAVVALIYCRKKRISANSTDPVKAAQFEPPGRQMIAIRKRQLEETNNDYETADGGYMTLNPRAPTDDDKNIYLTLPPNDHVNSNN

T3: Fc gamma receptor RIIA H167 (human, UniProt P12318 36-218)
T3 construct: soluble SPR analyte
T3 sequence (looked up): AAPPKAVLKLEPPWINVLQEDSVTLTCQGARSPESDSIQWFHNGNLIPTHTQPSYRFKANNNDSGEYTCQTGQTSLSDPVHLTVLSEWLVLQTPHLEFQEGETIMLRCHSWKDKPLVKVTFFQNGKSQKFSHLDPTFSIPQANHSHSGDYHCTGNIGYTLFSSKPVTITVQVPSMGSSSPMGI

T4: Fc gamma receptor RIIB/C (human, UniProt P31994 46-217)
T4 construct: soluble SPR analyte
T4 sequence (looked up): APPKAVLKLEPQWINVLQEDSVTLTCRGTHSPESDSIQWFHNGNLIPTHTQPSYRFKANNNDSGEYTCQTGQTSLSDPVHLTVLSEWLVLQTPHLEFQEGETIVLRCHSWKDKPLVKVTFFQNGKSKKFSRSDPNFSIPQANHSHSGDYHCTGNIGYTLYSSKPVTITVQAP

T5: Fc gamma receptor RIIA R167 (human, UniProt P12318 36-218)
T5 construct: soluble SPR analyte
T5 sequence (looked up): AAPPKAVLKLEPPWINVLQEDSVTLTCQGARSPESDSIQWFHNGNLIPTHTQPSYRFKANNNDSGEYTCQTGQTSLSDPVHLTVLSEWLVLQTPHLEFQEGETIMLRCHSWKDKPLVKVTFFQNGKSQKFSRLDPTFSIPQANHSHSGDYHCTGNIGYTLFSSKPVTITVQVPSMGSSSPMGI


Assays:
[1] = target: T1, Fc gamma receptor RIIB/C on CHO-K1SV …; assay: flow cytometry, CHO-K1SV transfectants
Procedure: (§1) CHO-K1SV cells stably transfected with a series of FcγR receptors were incubated with each of the […] listed in Table 23. A typical experiment labeled approximately 100,000 cells per well, in 96-well plates, with a range of binding molecule concentrations of 1 to 1000 nM, in 100 μl of PBS buffer with 0.2% BSA and 2 mM EDTA, for 30 minutes on ice, followed by washes and incubation with PE-labeled minimum cross species reactive secondary antibody, goat anti-human IgG Fcγ, F(ab′)2 ([…]) for 30 minutes to 1 hour on ice. Signal from bound molecules was detected using a LSR-II™ flow cytometer (BD Biosciences) and analyzed by FlowJo flow cytometry analysis software. Mean fluorescence intensity (MFI) of bound molecules on cells was determined after exclusion of doublets.

[2] = target: T6, Fc gamma receptor RIIIA V158 on CHO-K1SV cells (human, UniProt P08637 17-254); assay: flow cytometry, CHO-K1SV transfectants
T6 construct: whole, on cells
T6 sequence (P08637 17-254 F176V): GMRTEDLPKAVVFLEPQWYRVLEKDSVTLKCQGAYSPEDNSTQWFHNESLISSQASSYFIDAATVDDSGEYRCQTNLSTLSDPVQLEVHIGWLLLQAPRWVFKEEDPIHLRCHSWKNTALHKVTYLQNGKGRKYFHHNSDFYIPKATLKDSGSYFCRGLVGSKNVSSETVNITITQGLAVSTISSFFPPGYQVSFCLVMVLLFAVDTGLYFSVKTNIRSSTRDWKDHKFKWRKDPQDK
Procedure: as §1

[3] = target: T7, Fc gamma receptor RIIIB on CHO-K1SV cells (human, UniProt O75015 17-200); assay: flow cytometry, CHO-K1SV transfectants
T7 construct: whole, on cells
T7 sequence (O75015 17-200): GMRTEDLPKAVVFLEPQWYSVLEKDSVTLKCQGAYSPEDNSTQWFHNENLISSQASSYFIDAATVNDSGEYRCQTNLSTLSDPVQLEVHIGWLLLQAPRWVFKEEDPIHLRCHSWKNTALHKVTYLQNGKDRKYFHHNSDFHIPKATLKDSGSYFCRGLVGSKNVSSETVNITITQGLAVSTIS
Procedure: as §1

[4] = target: T8, Fc gamma receptor RI on CHO-K1SV cells (human, UniProt P12314 16-374); assay: flow cytometry, CHO-K1SV transfectants
T8 construct: whole, on cells; also called FcγR1 cells
T8 sequence (P12314 16-374): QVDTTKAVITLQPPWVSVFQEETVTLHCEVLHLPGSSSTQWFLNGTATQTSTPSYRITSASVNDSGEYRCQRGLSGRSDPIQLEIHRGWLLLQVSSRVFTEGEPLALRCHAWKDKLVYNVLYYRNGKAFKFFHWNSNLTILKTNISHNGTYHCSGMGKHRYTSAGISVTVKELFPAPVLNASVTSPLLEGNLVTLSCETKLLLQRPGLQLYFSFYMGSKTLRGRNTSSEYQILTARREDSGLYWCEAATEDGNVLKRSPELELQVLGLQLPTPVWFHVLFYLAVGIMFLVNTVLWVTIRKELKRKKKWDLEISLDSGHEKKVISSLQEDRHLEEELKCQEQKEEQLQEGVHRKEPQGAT
Procedure: as §1

[5] = target: T2, Fc gamma receptor RIIA H131 on CHO-K1SV …; assay: flow cytometry, CHO-K1SV transfectants
Procedure: as §1

[6] = target: T9, Fc gamma receptor RIIIA F158 on CHO-K1SV cells (human, UniProt P08637 17-254); assay: flow cytometry, CHO-K1SV transfectants
T9 construct: whole, on cells
T9 sequence (P08637 17-254): as the sequence (P08637 17-254 F176V) above, with V160F counted along it
Procedure: as §1

[7] = target: T10, Fc gamma receptor RIIIB (human, UniProt O75015 17-200); assay: SPR, Fc captured, receptor as analyte
T10 construct: soluble SPR analyte
T10 sequence (O75015 17-200): as the sequence (O75015 17-200) above
Procedure: (§2) Fc mutations to be potentially integrated into an ADAPTIR™ bispecific construct were analyzed for binding to the common Fc receptors (human and cyno) and C1Q, which is a component of the complement activation system. SPR experiments were conducted at 25° C. in HBS-EP+ buffer on a Biacore T200 system.
(§3) For these experiments, all four flow cells of a CM5 sensor chip were immobilized with goat F(ab′)2 anti-human Fc (Jackson ImmunoResearch) to a response level of ˜4000 RU. Fc variants and wild type Fc were diluted to 100 nM in HBS-EP+ and captured on the surface of the chip for 120 seconds at a flow rate of 10 μL/min. Fcγ receptors (human and cyno, all purchased from R&D Systems) and complement (C1Q, purchased from Quidel Corporation and Complement Technology, Inc) were diluted in HBS-EP+ and then flowed as analytes at 30 μL/min for 120 seconds followed by a 120 seconds dissociation. Regeneration was achieved by flowing 10 mM glycine pH 1.7 at 30 μL/min for 30 seconds followed by a 60 seconds stabilization. Flow cell 1 was always left as a blank (no captured protein) for purposes of background signal subtraction. Blank-subtracted sensorgrams for each captured Fc variant were inspected for the presence of binding to any of the Fcγ receptor proteins or complement. There are polymorphisms in the Human Fc receptors IIA and RIIIA, so both sequences were tested for binding.

[8] = target: T11, Fc gamma receptor RIIIA V176 (human, UniProt P08637 17-208); assay: SPR, Fc captured, receptor as analyte
T11 construct: soluble SPR analyte
T11 sequence (P08637 17-208 F176V): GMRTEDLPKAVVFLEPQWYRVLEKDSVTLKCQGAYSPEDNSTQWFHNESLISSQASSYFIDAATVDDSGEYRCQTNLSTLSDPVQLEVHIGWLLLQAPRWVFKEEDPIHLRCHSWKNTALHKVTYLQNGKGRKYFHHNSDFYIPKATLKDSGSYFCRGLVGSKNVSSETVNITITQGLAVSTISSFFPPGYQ
Procedure: as §2, §3

[9] = target: T3, Fc gamma receptor RIIA H167; assay: SPR, Fc captured, receptor as analyte
Procedure: as §2, §3

[10] = target: T4, Fc gamma receptor RIIB/C; assay: SPR, Fc captured, receptor as analyte
Procedure: as §2, §3

[11] = target: T12, Fc gamma receptor RI (human, UniProt P12314 16-288); assay: SPR, Fc captured, receptor as analyte
T12 construct: also called FcγRI
T12 sequence (P12314 16-288 limits assumed): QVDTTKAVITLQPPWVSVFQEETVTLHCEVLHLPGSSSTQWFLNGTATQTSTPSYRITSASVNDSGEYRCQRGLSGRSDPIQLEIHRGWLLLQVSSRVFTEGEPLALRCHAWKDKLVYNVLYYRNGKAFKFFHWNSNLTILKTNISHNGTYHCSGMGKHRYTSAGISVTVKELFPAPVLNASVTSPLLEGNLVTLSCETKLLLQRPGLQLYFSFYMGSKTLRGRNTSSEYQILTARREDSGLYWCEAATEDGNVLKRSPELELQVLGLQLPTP
Procedure: as §2, §3

[12] = target: T13, Recombinant FcRn/b2M protein (human, UniProt P55899 24-297; P61769 21-119, limits assumed); assay: SPR pH 6.0, FcRn/b2M immobilized, two-state reaction model
T13 construct: also called hFcRn/b2M; neonatal Fc receptor
Procedure: Recombinant FcRn/b2M protein was generated via transient transfection of HEK-293 cells with a bi-cistronic vector containing the genes for both FcRn and […]. The complex was purified using IMAC chromatography and subsequently buffer exchanged into IMAC elution buffer after verifying purity of the IMAC eluate by analytical SEC. hFcRn/b2M at 10 μg/ml in 10 mM sodium acetate (pH 4.5) was immobilized on a CM5 chip by direct amine coupling chemistry to a level of ˜600 RU. A reference flow cell was left blank.
Different concentrations of the Fc variant protein (5-80 nM by 2-fold dilutions in pH 6.0 running buffer) including running buffer as blank were injected in randomized order at 30 μL/min for 180 seconds followed by a 120 second dissociation period.
Sensorgrams obtained from kinetic SPR measurements were analyzed by the double subtraction method. The signal from the reference flow cell was subtracted from the analyte binding response obtained from flow cell with immobilized ligands. Buffer reference was subtracted from analyte binding responses, and the final double-referenced data were analyzed with Biacore T200 Evaluation software (2.0, GE), globally fitting data to derive kinetic parameters. All sensorgrams were fitted using two-state reaction model, as described in Weirong Wang et al, DrugMetab Dispos.: 39(9): 1469-77 (2011).

[13] = target: T5, Fc gamma receptor RIIA R167; assay: SPR, Fc captured, receptor as analyte, relative to wild type Fc
Procedure: as §2, §3

[14] = target: T14, C1Q (UniProt P02745 23-245; P02746 28-253; P02747 29-245); assay: SPR, Fc captured, C1Q as analyte
T14 construct: also called complement C1Q
T14 sequence (P02745 23-245 limits assumed, chain 1 of 3): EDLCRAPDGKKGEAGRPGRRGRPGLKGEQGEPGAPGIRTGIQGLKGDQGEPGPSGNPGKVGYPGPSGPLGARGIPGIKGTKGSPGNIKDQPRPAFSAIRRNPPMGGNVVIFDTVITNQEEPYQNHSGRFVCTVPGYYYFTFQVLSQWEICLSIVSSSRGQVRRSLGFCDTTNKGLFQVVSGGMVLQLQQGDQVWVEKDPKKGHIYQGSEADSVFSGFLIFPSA
T14 sequence (P02746 28-253 limits assumed, chain 2 of 3): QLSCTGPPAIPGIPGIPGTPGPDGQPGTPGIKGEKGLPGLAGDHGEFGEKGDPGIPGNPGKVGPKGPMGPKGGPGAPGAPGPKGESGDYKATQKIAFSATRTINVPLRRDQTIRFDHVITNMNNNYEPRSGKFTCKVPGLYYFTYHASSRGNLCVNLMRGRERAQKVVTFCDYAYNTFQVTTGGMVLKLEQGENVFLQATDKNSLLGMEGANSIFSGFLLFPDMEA
T14 sequence (P02747 29-245 limits assumed, chain 3 of 3): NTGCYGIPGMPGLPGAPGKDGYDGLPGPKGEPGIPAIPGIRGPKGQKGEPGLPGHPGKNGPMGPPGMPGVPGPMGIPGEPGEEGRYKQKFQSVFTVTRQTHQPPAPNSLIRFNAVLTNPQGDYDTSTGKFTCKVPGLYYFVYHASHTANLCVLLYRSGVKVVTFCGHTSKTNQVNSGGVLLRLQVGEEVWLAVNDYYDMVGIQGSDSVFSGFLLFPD
Procedure: as §2, §3

[15] = target: T15, Cyno RIII (cynomolgus monkey, UniProt Q8SPW2 17-208); assay: SPR, Fc captured, receptor as analyte
T15 construct: extracellular domain
T15 sequence (Q8SPW2 17-208): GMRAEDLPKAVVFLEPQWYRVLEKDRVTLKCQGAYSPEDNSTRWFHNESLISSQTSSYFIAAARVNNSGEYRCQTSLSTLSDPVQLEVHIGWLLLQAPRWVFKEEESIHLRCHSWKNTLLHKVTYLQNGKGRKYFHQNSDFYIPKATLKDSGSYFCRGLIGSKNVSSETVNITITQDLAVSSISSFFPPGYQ
Procedure: as §3

[16] = target: T11, Fc gamma receptor RIIIA V176; assay: SPR, Fc captured, receptor as analyte, relative to wild type Fc
Procedure: as §2, §3

Row | binding result [1] | binding result [2] | binding result [3] | binding result [4] | binding result [5] | binding result [6] | binding result [7] | binding result [8] | binding result [9] | binding result [10] | binding result [11] | Kd [12] [nM] | binding result [13] | binding result [14] | binding result [15] | binding result [16] | Binder
1 | no binding (tested: 1 to 1000 nM) | no binding (tested: 1 to 1000 nM) | no binding (tested: 1 to 1000 nM) | no binding (tested: 1 to 1000 nM) | no binding (tested: 1 to 1000 nM) | no binding (tested: 1 to 1000 nM) | no binding | no binding | no binding | no binding | no binding | 19 | binds | no binding | no binding | – | TSC 1007 (other, IgG1 Fc with E233P, L234A, L235A, deletion of G236, G237A, K322A (EU); also called PAAdel TSC01007) EPKSSDKTHTCPPCPAPPAAAPSVFLFPPKPKDTLMISRTPEVTCVVVDVSHEDPEVKFNWYVDGVEVHNAKTKPREEQYNSTYRVVSVLTVLHQDWLNGKEYKCAVSNKALPAPIEKTISKAKGQPREPQVYTLPPSRDELTKNQVSLTCLVKGFYPSDIAVEWESNGQPENNYKTTPPVLDSDGSFFLYSKLTVDKSRWQQGNVFSCSVMHEALHNHYTQKSLSLSPG
2 | no binding (tested: 1 to 1000 nM) | no binding (tested: 1 to 1000 nM) | no binding (tested: 1 to 1000 nM) | no binding (tested: 1 to 1000 nM) | no binding (tested: 1 to 1000 nM) | no binding (tested: 1 to 1000 nM) | no binding | no binding | no binding | no binding | no binding | 20 | binds | no binding | no binding | – | TSC 1004 (other, IgG1 Fc with E233P, L234V, L235A, G237A, K322A (EU); also called PVAG TSC01004) EPKSSDKTHTCPPCPAPPVAGAPSVFLFPPKPKDTLMISRTPEVTCVVVDVSHEDPEVKFNWYVDGVEVHNAKTKPREEQYNSTYRVVSVLTVLHQDWLNGKEYKCAVSNKALPAPIEKTISKAKGQPREPQVYTLPPSRDELTKNQVSLTCLVKGFYPSDIAVEWESNGQPENNYKTTPPVLDSDGSFFLYSKLTVDKSRWQQGNVFSCSVMHEALHNHYTQKSLSLSPG
3 | no binding (tested: 1 to 1000 nM) | – | no binding (tested: 1 to 1000 nM) | no binding (tested: 1 to 1000 nM) | no binding (tested: 1 to 1000 nM) | no binding (tested: 1 to 1000 nM) | no binding | – | no binding | no binding | no binding | 19 | binds | no binding | no binding | binds | TSC 1006 (other, IgG1 Fc with E233P, L234A, L235A, G237A, K322A (EU); also called PAAG TSC01006) EPKSSDKTHTCPPCPAPPAAGAPSVFLFPPKPKDTLMISRTPEVTCVVVDVSHEDPEVKFNWYVDGVEVHNAKTKPREEQYNSTYRVVSVLTVLHQDWLNGKEYKCAVSNKALPAPIEKTISKAKGQPREPQVYTLPPSRDELTKNQVSLTCLVKGFYPSDIAVEWESNGQPENNYKTTPPVLDSDGSFFLYSKLTVDKSRWQQGNVFSCSVMHEALHNHYTQKSLSLSPG

— patent US20220242962A1 (APTEVO RESEARCH AND DEVELOPMENT, published 2022)
